Patent US20240084027A1 (BEIJING MABWORKS, published 2024)
Like-named read-outs stand apart in the source and are kept apart here.

T1: mouse CD40 on HEK293A cells (mouse, UniProt P27512 20-289)
T1 sequence: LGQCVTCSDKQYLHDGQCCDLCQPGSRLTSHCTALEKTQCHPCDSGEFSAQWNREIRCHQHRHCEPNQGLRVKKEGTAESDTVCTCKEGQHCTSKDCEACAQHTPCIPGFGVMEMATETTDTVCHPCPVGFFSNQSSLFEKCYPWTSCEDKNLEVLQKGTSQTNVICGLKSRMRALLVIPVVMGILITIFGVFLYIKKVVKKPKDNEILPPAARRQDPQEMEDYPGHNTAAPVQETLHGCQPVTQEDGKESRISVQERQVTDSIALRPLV

T2: monkey CD40 on HEK293A/monkey CD40 cells (monkey, UniProt P25942 21-277 (human entry))
T2 chain: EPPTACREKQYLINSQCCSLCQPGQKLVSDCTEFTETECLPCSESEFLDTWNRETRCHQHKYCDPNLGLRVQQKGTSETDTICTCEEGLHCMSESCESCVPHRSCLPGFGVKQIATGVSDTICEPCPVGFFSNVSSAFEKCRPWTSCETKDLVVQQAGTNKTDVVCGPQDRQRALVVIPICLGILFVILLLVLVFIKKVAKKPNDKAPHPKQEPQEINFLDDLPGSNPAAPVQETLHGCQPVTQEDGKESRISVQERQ


Tests used:
[1] = molecular target: T3, human CD40 on HEK293A/human CD40 cells (human, UniProt P25942 21-277); assay: cell-based or functional assay
[2] = molecular target: T1, mouse CD40 on HEK293A cells; assay: FACS on HEK293A cells expressing mouse CD40
Experimental: (§1) The bispecific antibodies as prepared above were tested for their binding capability to cell surface human, monkey and mouse CD40 proteins by FACS, using the HEK293A cells prepared in Example 1 that stably expressed human, monkey or mouse CD40. Briefly, a 96-well plate was seeded with 10⁵ HEK293A cells in 50 μl PBS, and then added with 100 μl serially diluted anti-CD40 antibody 714VH2VL2 and the bispecific antibodies of the disclosure (starting concentration at 40 μg/ml). After incubation at 4° C. for 1 h, the plate was washed by PBST for 3 times. The plate was added with 1:500 diluted APC-goat anti-mouse IgG (Cat #:405308, BioLegen, USA), incubated at 4° for 1 h, washed with PBS for 3 times, and subjected to fluorescence measurement in a FACS machine (BD).

[3] = molecular target: T3, human CD40 on HEK293A/human CD40 cells; assay: FACS on HEK293A/human CD40 cells
Experimental: as §1

[4] = molecular target: T3, human CD40 on HEK293A/human CD40 cells; assay: FACS on HEK293A/human CD40 cells; remark: listed apart in the source
Experimental: as §1
(§2) Following the protocols in Example 4 and Example 5, the bi- or multi-specific antibodies of the disclosure were tested for their binding capability to human PD-L1 and human CD40 proteins by FACS using the HEK293A cells prepared in Example 1 that stably expressed human PD-L1 or human CD40.

[5] = molecular target: T2, monkey CD40 on HEK293A/monkey CD40 cells; assay: FACS on HEK293A/monkey CD40 cells
Experimental: as §1

[6] = molecular target: T4, human PD-L1 on HEK293A/human PD-L1 cells (human, UniProt Q9NZQ7 19-290); assay: FACS on HEK293A/human PD-L1 cells
Experimental: as §1
(§3) Following the protocol of Example 4, the bispecific antibodies were tested for their binding capability to cell surface human, or monkey PD-L1 proteins by FACS, using the HEK293A cells prepared in Example 1 that stably expressed human or monkey […].

[7] = molecular target: T4, human PD-L1 on HEK293A/human PD-L1 cells; assay: FACS on HEK293A/human PD-L1 cells; remark: listed apart in the source
Experimental: as §1, §2

[8] = molecular target: T4, human PD-L1 on HEK293A/human PD-L1 cells; assay: FACS on HEK293A/human PD-L1 cells; remark: listed apart in the source
Experimental: as §1, §2

[9] = molecular target: monkey PD-L1 on HEK293A/monkey PD-L1 cells (monkey, UniProt Q9NZQ7 19-290 (human entry)); assay: FACS on HEK293A/monkey PD-L1 cells
Experimental: as §1, §3

[10] = molecular target: T5, human CD40-his protein (human, UniProt P25942 21-193); assay: SPR (BIAcore 8K), human CD40-his coupled to CM5 chip, antibody injected
T5 construct: Bought protein; also called human CD40 protein; CD40 molecules; not shown: his tag
Source text: (§4) Using BIAcore™ 8K instrument (GE Life Sciences, US), the binding affinity of the bi- or multi-specific antibodies to human CD40 and PD-L1 was quantitatively measured. Briefly, 100-200 response units (RU) of human CD40-his protein (Cat #:10774-1108H, Sino Biological, CN) or human PD-L1-his protein (Cat #:10084-H08H, Sino Biological, CN) were coupled to CM5 biosensor chips (Cat #:BR-1005-30, GE Life Sciences. USA). The un-reacted groups were then blocked with 1 M ethanolamine. Serially diluted antibodies at concentrations ranging from 0.3 μM to 10 μM were injected into the SPR running buffer (HBS-EP buffer, pH7.4, Cat #:BR-1006-69, GE Life Sciences, USA) at 30 μL/min. The binding affinity was calculated with the RUs of blank controls subtracted, and the association rate (kₐ) and dissociation rate (kd) were determined using the one-to-one Langmuir binding model (BIA Evaluation Software, GE Life Sciences, USA). The equilibrium dissociation constant KD was calculated as the kd/kₐ ratio.

[11] = molecular target: T6, human PD-L1-his protein (human, UniProt Q9NZQ7 19-238); assay: SPR (BIAcore 8K), human PD-L1-his coupled to CM5 chip, antibody injected
T6 construct: extracellular domain; also called human PD-L1 (ECD)-his; human PD-L1 protein; not shown: his tag
Source text: as §4

[12] = molecular target: T4, human PD-L1 on HEK293A/human PD-L1 cells; assay: FACS blocking assay on HEK293A/human PD-L1 cells; blocked ligand PD-1-Fc
Experimental: (§5) The bispecific antibodies were tested for their blocking activity on PD-1-PD-L1 binding by FACS using the HEK293A cells stably expressing human PD-L1 molecules as prepared in Example 1. Briefly, a 96-well plate was seeded with 10⁵ HEK293A/human PD-L1 cells in 100 μl cell culture medium, and then added with 50 μl serially diluted anti-PD-L1 antibody 56E5VH5VL4 or MBS307-3 molecules. After incubation at 4° C. for 1 h. the plate was washed with PBST for 3 times, added with 100 μl 200 μg/ml PD-1-Fc fusion proteins (Cat #:10377-10211, Sino Biological, CN), incubated at 4° C. for 1 h, washed with PBST for 3 times, and added with 1:500 diluted PE-goat anti-human IgG (Cat #:PAI-86078, Thermofisher, USA). After incubation at 4° C. for 1 h, the plate was washed with PBST for 3 times and measured for fluorescence using a FACS machine (BD).

[13] = molecular target: T4, human PD-L1 on HEK293A/human PD-L1 cells; assay: as above; remark: listed apart in the source
Experimental: as §5
(§6) Following the protocol of Example 7, the bi- or multi-specific antibodies were tested for their capability to block PD-1-PD-L1 binding by FACS, using the HEK293A cells prepared in Example 1 that stably expressed human PD-L1 molecules.

[14] = molecular target: T3, human CD40 on HEK293A/human CD40 cells; assay: cell-based or functional assay; remark: listed apart in the source
[15] = molecular target: T4, human PD-L1 on HEK293A/human PD-L1 cells; assay: FACS blocking assay on HEK293A/human PD-L1 cells; blocked ligand PD-1-Fc; remark: listed apart in the source
Experimental: as §5, §6

T4 sequence (Q9NZQ7 19-290 limits assumed): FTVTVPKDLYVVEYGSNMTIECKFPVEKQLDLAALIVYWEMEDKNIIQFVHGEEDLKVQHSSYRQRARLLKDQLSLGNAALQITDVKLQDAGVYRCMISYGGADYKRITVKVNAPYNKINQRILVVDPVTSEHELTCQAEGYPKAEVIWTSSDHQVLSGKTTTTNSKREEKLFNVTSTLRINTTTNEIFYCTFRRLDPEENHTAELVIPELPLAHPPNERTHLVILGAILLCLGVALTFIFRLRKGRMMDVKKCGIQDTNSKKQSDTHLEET
T6 sequence (Q9NZQ7 19-238): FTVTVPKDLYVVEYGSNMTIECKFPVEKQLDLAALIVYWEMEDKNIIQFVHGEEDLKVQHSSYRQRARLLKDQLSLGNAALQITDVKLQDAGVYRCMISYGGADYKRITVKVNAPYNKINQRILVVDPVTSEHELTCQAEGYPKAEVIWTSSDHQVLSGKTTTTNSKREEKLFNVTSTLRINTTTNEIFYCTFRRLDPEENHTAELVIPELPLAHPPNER
Chain of monkey PD-L1 on HEK293A/monkey PD-L1 cells (Q9NZQ7 other isoform, or with tags, fused parts or gaps limits assumed): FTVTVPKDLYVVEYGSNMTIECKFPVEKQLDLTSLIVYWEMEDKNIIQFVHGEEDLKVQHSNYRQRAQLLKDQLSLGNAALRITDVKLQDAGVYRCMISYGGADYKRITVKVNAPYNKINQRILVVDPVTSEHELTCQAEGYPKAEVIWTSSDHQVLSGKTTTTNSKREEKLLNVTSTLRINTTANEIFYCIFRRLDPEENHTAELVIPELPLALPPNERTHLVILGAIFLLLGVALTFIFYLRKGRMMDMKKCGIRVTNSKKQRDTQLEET

EC50 (read off the curve); HEK-Blue/CD40 reporter, OD630, plate coated with human PD-L1-his [1] [µg/mL] | EC50 (read off the curve) [3] [µg/mL] | EC50 (read off the curve) [4] [µg/mL] | EC50 (read off the curve) [5] [µg/mL] | EC50 (read off the curve) [6] [µg/mL] | EC50 (read off the curve) [7] [µg/mL] | EC50 (read off the curve) [8] [µg/mL] | EC50 (read off the curve) [9] [µg/mL] | Kd [10] [nM] | Kd [11] [nM] | IC50 (read off the curve) [12] [µg/mL] | IC50 (read off the curve) [13] [µg/mL] | EC50 (read off the curve); HEK-Blue/CD40 reporter, OD630, plate coated with human PD-L1-his [14] [µg/mL] | IC50 (read off the curve) [15] [µg/mL] | Binder | binding result [2]
~0.1 | ~0.1 | ~0.1 | ~0.1 | ~0.1 | ~0.2 | ~0.1 | ~0.09 | 1.42 | 0.321 | ~0.1 | ~0.08 |  |  | MBS307-3 (bispecific antibody, human IgG1, kappa, L234A L235A, Symmetric: full-length anti-CD40 antibody with an anti-PD-L1 scFv (56E5VH5VL4) at the C terminus of each heavy chain) heavy: QVQLQESGPGLVKPSDTLSLTCAVSGYSITTNYYWNWIRQPPGKGLEWMGYIKYDGSNNYNPSLKNRITISVDTSKNQFSLKLSSVTAVDTAVYYCARLDYWGQGTLVTVSSASTKGPSVFPLAPSSKSTSGGTAALGCLVKDYFPEPVTVSWNSGALTSGVHTFPAVLQSSGLYSLSSVVTVPSSSLGTQTYICNVNHKPSNTKVDKKVEPKSCDKTHTCPPCPAPEAAGGPSVFLFPPKPKDTLMISRTPEVTCVVVDVSHEDPEVKFNWYVDGVEVHNAKTKPREEQYNSTYRVVSVLTVLHQDWLNGKEYKCKVSNKALGAPIEKTISKAKGQPREPQVYTLPPSREEMTKNQVSLTCLVKGFYPSDIAVEWESNGQPENNYKTTPPVLDSDGSFFLYSKLTVDKSRWQQGNVFSCSVMHEALHNHYTQKSLSLSPGSGGGGSGGGGSQVQLQESGPGLVKPSQTLSLTCTVSGGSITSDYWNWIRQHPGNKLEYMGYISYTGSTYYNPSLKSRISITRDTSKNQFSLKLSSVTTADTAVYYCARYRDWDVRAMDYWGQGTTVTVSSGGGGSGGGGSGGGGSGGGGSDIVMTQSPDSLAVSLGEKVTMNCKSSQSLLISGNQKNFLTWYQQKPGQPPKLLIYWASTRESGVPDRFSGSGSGTDFTLTISSLQAEDEAVYYCQNDFGFPFTFGQGTKLTAK light: DVVLTQSPLSLPVTLGQPASISCRSSQSLENSNGNTFLNWFQQRPGQSPRLLIYKVSNRFSGVPDRFSGSGSGTDFTLKISRVEAEDVGVYYCLQVTHVPFTFGQGTKLEIKRTVAAPSVFIFPPSDEQLKSGTASVVCLLNNFYPREAKVQWKVDNALQSGNSQESVTEQDSKDSTYSLSSTLTLSKADYEKHKVYACEVTHQGLSSPVTKSFNRGEC | no binding (tested: starting concentration at 40 µg/ml)
 |  |  |  |  |  |  |  | 4.37 | 0.069 |  |  | ~0.01 | ~0.01 | MBS307-11 (bispecific antibody, human IgG1, kappa, L234A L235A, Asymmetric: knob chain with the anti-PD-L1 nanobody, hole chain with the 3C2VH6VL5 scFv; also called MBS307-11-1 + MBS307-11-2) heavy 1: QVQLQESGPGLVKPSDTLSLTCAVSGYSITTNYYWNWIRQPPGKGLEWMGYIKYDGSNNYNPSLKNRITISVDTSKNQFSLKLSSVTAVDTAVYYCARLDYWGQGTLVTVSSASTKGPSVFPLAPSSKSTSGGTAALGCLVKDYFPEPVTVSWNSGALTSGVHTFPAVLQSSGLYSLSSVVTVPSSSLGTQTYICNVNHKPSNTKVDKKVEPKSCDKTHTCPPCPAPEAAGGPSVFLFPPKPKDTLMISRTPEVTCVVVDVSHEDPEVKFNWYVDGVEVHNAKTKPREEQYNSTYRVVSVLTVLHQDWLNGKEYKCKVSNKALPAPIEKTISKAKGQPREPQVYTLPPSREEMTKNQVSLWCLVKGFYPSDIAVEWESNGQPENNYKTTPPVLDSDGSFFLYSKLTVDKSRWQQGNVFSCSVMHEALHNHYTQKSLSLSPGGGGGQVQLLESGGGLVQPGGSLRLSCAASGFAFSDYAMTWVRQAPGKGLEWVSTINSGGQSSSYLDSVKGRFTSSRDNSKNTLYLQMNSLRAEDTAVYYCAKGVYMPWKAPKGQGTLVTVSS heavy 2: QVQLQESGPGLVKPSDTLSLTCAVSGYSITTNYYWNWIRQPPGKGLEWMGYIKYDGSNNYNPSLKNRITISVDTSKNQFSLKLSSVTAVDTAVYYCARLDYWGQGTLVTVSSASTKGPSVFPLAPSSKSTSGGTAALGCLVKDYFPEPVTVSWNSGALTSGVHTFPAVLQSSGLYSLSSVVTVPSSSLGTQTYICNVNHKPSNTKVDKKVEPKSCDKTHTCPPCPAPEAAGGPSVFLFPPKPKDTLMISRTPEVTCVVVDVSHEDPEVKFNWYVDGVEVHNAKTKPREEQYNSTYRVVSVLTVLHQDWLNGKEYKCKVSNKALPAPIEKTISKAKGQPREPQVYTLPPSREEMTKNQVSLSCAVKGFYPSDIAVEWESNGQPENNYKTTPPVLDSDGSFFLVSKLTVDKSRWQQGNVFSCSVMHEALHNHYTQKSLSLSPGGGGGQVQLVQSGAEVKKPGASVKVSCKASGYTFTDYHVNWVRQAPGQGLEWIGWIFPGSGRTFYTDKFKGRVTMTVDTSTSTVYMELSSLRSEDTAVYYCATDYGTSGYGLVYWGQGTTVTVSSGGGGSGGGGSGGGGSGGGGSDIQMTQSPSSLSASVGDRVTITCKASDRINNWLAWYQQKPGKAPKLLISGATSLETGVPSRFSGSGSGTDFTLTISSLQPEDEATYYCQQYWNIPFTFGQGTKLTAK light: DVVLTQSPLSLPVTLGQPASISCRSSQSLENSNGNTFLNWFQQRPGQSPRLLIYKVSNRFSGVPDRFSGSGSGTDFTLKISRVEAEDVGVYYCLQVTHVPFTFGQGTKLEIKRTVAAPSVFIFPPSDEQLKSGTASVVCLLNNFYPREAKVQWKVDNALQSGNSQESVTEQDSKDSTYSLSSTLTLSKADYEKHKVYACEVTHQGLSSPVTKSFNRGEC | 
